{
  "source": "paper doi:10.1101/2024.11.24.625074",
  "about": "“Assembly and lipid-gating of LRRC8A:D volume-regulated anion channels” (bioRxiv, 2024)",
  "proteins": {"B1": {"name": "Mus musculus LRRC8D (natural protein, UniProt Q8BGR2 1-859, looked up)", "chain": "MFTLAEVASLNDIQPTYRILKPWWDVFMDYLAVVMLMVAIFAGTMQLTKDQVVCLPVLPSPANSKAHTPPGNADITTEVPRMETATHQDQNGQTTTNDVAFGTSAVTPDIPLQATHPHAESTLPNQEAKKEKRDPTGRKTNLDFQQYVFINQMCYHLALPWYSKYFPYLALIHTIILMVSSNFWFKYPKTCSKVEHFVSILGKCFESPWTTKALSETACEDSEENKQRITGAQTLPKHVSTSSDEGSPSASTPMINKTGFKFSAEKPVIEVPSMTILDKKDGEQAKALFEKVRKFRAHVEDSDLIYKLYVVQTLIKTAKFIFILCYTANFVNAISFEHVCKPKVEHLTGYEVFECTHNMAYMLKKLLISYISIICVYGFICLYTLFWLFRIPLKEYSFEKVREESSFSDIPDVKNDFAFLLHMVDQYDQLYSKRFGVFLSEVSENKLREISLNHEWTFEKLRQHVSRNAQDKQELHLFMLSGVPDAVFDLTDLDVLKLELIPEAKIPAKISQMTNLQELHLCHCPAKVEQTAFSFLRDHLRCLHVKFTDVAEIPAWVYLLKNLRELYLIGNLNSENNKMIGLESLRELRHLKILHVKSNLTKVPSNITDVAPHLTKLVIHNDGTKLLVLNSLKKMMNVAELELQNCELERIPHAIFSLSNLQELDLKSNNIRTIEEIISFQHLKRLTCLKLWHNKIVAIPPSITHVKNLESLYFSNNKLESLPTAVFSLQKLRCLDVSYNNISTIPIEIGLLQNLQHLHITGNKVDILPKQLFKCVKLRTLNLGQNCIASLPEKISQLTQLTQLELKGNCLDRLPAQLGQCRMLKKSGLVVEDQLFDTLPLEVKEALNQDVNVPFANGI", "notes": "the tag was cut off with TEV protease during purification, so a short C-terminal remnant of the linker and the cleavage site is left; Two copies stand in the hexameric channel; also called mmLRRC8D; LRRC8D subunit; source: Sf9 cells, co-expressed with LRRC8A_(BRIL) from one baculovirus; purified in GDN (α-mCherry nanobody resin, α-GFP nanobody resin, Superose 6 Increase); not shown: mCherry, …"}},
  "target": "the molecule itself",
  "assay": "cryo-EM structure; LRRC8A_(BRIL):D complexes co-expressed in Sf9, purified in 20 mM HEPES, 150 mM KCl, 1 mM EDTA, 0.02% GDN, pH 7.4; α-BRIL Fab BAG2 and α-Fab Nb added as fiducials; two conformations resolved by 3D variability analysis, C1 symmetry",
  "data": [
    {"protein": "B1", "values": [
      {"measurement": "binding result", "result": "binds"}
    ]}
  ]
}
